# In article PMC9785812 (Pharmaceutics, 2022):
# Read-outs that look alike come from different tables or passages of the source.
# Legend:
# SSTR2 receptors = molecular target: T1, SSTR2 receptors (Rattus norvegicus, UniProt P30680); assay: Cell binding assay (membrane association and internalization); format: cell-based; settings: for decrease of binding by co-incubation with unlabeled DOTA-TATE: 1 h
# T1 construct: CA20948 cells are derived from rat pancreas and express SSTR2 endogenously; endogenous in cells; host or cells: CA20948 rat pancreatic cancer cells
# T1 sequence (P30680 whole entry): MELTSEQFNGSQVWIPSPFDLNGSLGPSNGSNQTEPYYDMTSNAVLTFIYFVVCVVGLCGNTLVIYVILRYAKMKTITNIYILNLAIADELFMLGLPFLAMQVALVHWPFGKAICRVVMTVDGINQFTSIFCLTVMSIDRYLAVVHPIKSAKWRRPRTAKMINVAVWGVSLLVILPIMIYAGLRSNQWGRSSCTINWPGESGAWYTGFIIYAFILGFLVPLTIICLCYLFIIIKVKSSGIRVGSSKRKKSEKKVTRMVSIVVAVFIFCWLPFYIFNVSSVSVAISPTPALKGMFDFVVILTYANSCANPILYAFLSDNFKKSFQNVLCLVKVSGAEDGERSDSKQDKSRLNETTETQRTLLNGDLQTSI
# Method: (§1) Rat pancreatic cancer cell line CA20948 was used given the somatostatin receptor 2 (SSTR2) overexpression as it is found in many human neuroendocrine tumors. Cells were grown in DMEM High Glucose and Pyruvate medium (Gibco 41966029) supplemented with 10% fetal bovine serum (Gibco 10270106) and 100 U/mL penicillin-streptomycin (Sigma-Aldrich P4333) and were maintained in a humidified incubator at 37 °C with 5% CO2 supply. All in vitro results were obtained from a minimum of three replicates per condition.
# Hereafter, fractions were collected. First, the membrane-bound fraction was collected following 10 min incubation at room temperature in strip buffer (50 mM glycine, 100 mM NaCl, pH 2.8). Then, the internalized fraction was collected by 30 min of cell lysis (1 M NaOH) at room temperature. […] In addition, total cell number per well was obtained using a MOXI™ automated cell counter (VWR, Leuven, Belgium).
# CA20948 cells = assay: MTS viability assay; format: cell-based, rat; settings: 4 h treatment, MTS after 4 days, relative to untreated cells, mean ± SD
# Method: as §1
# A total of 10,000 cells were seeded per well into a 96-well plate (31,250 cells/cm²). […] After 4 h incubation at 37 °C in 5% CO2, cells were washed and new medium was added. Then, after 4 days, MTS reagent was prepared according to the manufacturer’s instructions and added to the cells. Absorbance was measured at 490 nm using the BioTek Synergy H1 reader (Agilent). Cell viability was obtained as the ratio of the absorbance of a sample well to the average absorbance of untreated (0 MBq/mL) wells, after subtraction of the background signal of wells containing MTS reagent without cells. Statistical significance (p < 0.05) was determined using linear models.
# [1] = Ex vivo biodistribution in healthy BALB/c mice; set-up: species or system mouse; settings: mouse, iv; for tissue uptake dose at 1 h / tissue uptake dose at 24 h / tissue uptake dose at 72 h / SUV at 1 h / SUV at 4 h / SUV at 24 h / SUV at 72 h / tissue uptake dose at 4 h: total radioactivity
# Method: Quantification of activity was performed with an automated gamma counter equipped with a 3-in NaI(Tl) detector coupled to a multichannel analyzer (2480 Wizard^2, Perkin Elmer, Zaventem, Belgium). The results were corrected for background signal, physical decay during counting and detector dead time.
# All animal experiments were performed in compliance with the Ethical Committee Animal Studies of Medanex Clinic (EC MxCl 2020-163 and EC MxCl 2021-173), the Belgian laboratory animal legislation and the European Communities Council Directive of 22 September 2010 (2010/63/EU). Male BALB/c and NMRI nude mice were purchased from Janvier (Bio Services, Uden, The Netherlands) and housed in ventilated cages under standard laboratory conditions (12 h light/dark cycle) at the animal facility of SCK CEN. All animals had access to food and water ad libitum.
# Additionally, similar biodistribution studies were performed with free (unlabeled) [^153Sm]SmCl3 to identify the organs with ^153Sm accumulation in case of release from the complex. […] The mice were sacrificed by an overdose pentobarbital (200 µL of 60 mg/mL) 1, 4, 24 and 72 h post-injection (p.i.) (n = 3–4 per time point). Blood was collected via cardiac puncture. Organs of interest were collected in tared tubes and weighed. The activity in the different organs was measured in the gamma counter. For the calculation of the total activity in the blood, bone and muscle, the masses were assumed to be, respectively, 7, 12 and 40% of the total body mass. Data were expressed as a percentage of injected activity (%IA) and standardized uptake value (SUV). %IA was calculated as (counts per min (cpm) in organ)/(IA converted to cpm) × 100. SUV was calculated as (activity in cpm in organ/weight of organ in g)/(IA/total body weight in g).
# [2] = male, BALB/c, bone, read-out: Bone %IA
# [3] = male, BALB/c, bone, read-out: Bone SUV
# [4] = male, BALB/c, in vivo, read-out: Excreted %IA
# [5] = male, BALB/c, intestines, read-out: Intestines %IA
# [6] = male, BALB/c, kidneys, read-out: Kidneys SUV
# [7] = male, BALB/c, liver, read-out: Liver SUV
# [8] = male, BALB/c, muscle, read-out: Muscle %IA
# [9] = male, BALB/c, pancreas, read-out: Pancreas %IA
# [10] = male, BALB/c, spleen, read-out: Spleen %IA
# [11] = male, BALB/c, spleen, read-out: Spleen SUV
smiles,measurement,setting,value
"C[C@@H](O)[C@H](NC(=O)[C@@H]1CSSC[C@H](NC(=O)[C@@H](Cc2ccccc2)NC(=O)CN2CCN(CC(=O)O)CCN(CC(=O)O)CCN(CC(=O)O)CC2)C(=O)N[C@@H](Cc2ccc(O)cc2)C(=O)N[C@H](Cc2c[nH]c3ccccc23)C(=O)N[C@@H](CCCCN)C(=O)N[C@@H]([C@@H](C)O)C(=O)N1)C(=O)O [[^153Sm]Sm-DOTA-TATE, metal not drawn]",internalized fraction of cell-associated activity,"SSTR2 receptors; 2.5 nM (2.7 kBq), 1 h incubation, mean ± SD",79 ± 2%
same,decrease of binding by co-incubation with unlabeled DOTA-TATE,SSTR2 receptors; 4-fold molar excess of unlabeled DOTA-TATE,about 40%
same,decrease of binding by co-incubation with unlabeled DOTA-TATE,SSTR2 receptors; 4000-fold molar excess of unlabeled DOTA-TATE,~92%
same,cell viability,CA20948 cells; 1.25 MBq/mL,significantly lowered viability
same,"cell viability, reduced down to",CA20948 cells; lowest viability over 0-10 MBq/mL,48 ± 6%
same,tissue uptake dose at 1 h,"[1]; male, BALB/c, blood, read-out: Blood %IA",0.7 ± 0.3 %ID
same,tissue uptake dose at 1 h,[1]; [2],0.8 ± 0.4 %ID
same,tissue uptake dose at 24 h,[1]; [2],0.7 ± 0.1 %ID
same,tissue uptake dose at 72 h,[1]; [2],0.6 ± 0.1 %ID
same,SUV at 1 h,[1]; [3],0.1 SUV
same,SUV at 4 h,[1]; [3],0.1 SUV
same,SUV at 24 h,[1]; [3],0.1 SUV
same,SUV at 72 h,[1]; [3],0.1 SUV
same,SUV at 1 h,"[1]; male, BALB/c, heart, read-out: Heart SUV",0.1 SUV
same,tissue uptake dose at 1 h,[1]; [4],82 ± 4.8 %ID
same,tissue uptake dose at 4 h,[1]; [4],90.2 ± 0.7 %ID
same,tissue uptake dose at 24 h,[1]; [4],96.6 ± 0.4 %ID
same,tissue uptake dose at 1 h,[1]; [5],0.6 ± 0.1 %ID
same,tissue uptake dose at 4 h,[1]; [5],0.5 %ID
same,tissue uptake dose at 72 h,[1]; [5],0.1 %ID
same,tissue uptake dose at 4 h,"[1]; male, BALB/c, kidneys, read-out: Kidneys %IA",3.2 ± 0.1 %ID
same,SUV at 24 h,[1]; [6],0.4 ± 0.1 SUV
same,SUV at 72 h,[1]; [6],0.1 SUV
same,tissue uptake dose at 4 h,"[1]; male, BALB/c, liver, read-out: Liver %IA",2.5 ± 0.8 %ID
same,SUV at 1 h,[1]; [7],0.4 ± 0.1 SUV
same,SUV at 24 h,[1]; [7],0.3 SUV
same,tissue uptake dose at 1 h,"[1]; male, BALB/c, lungs, read-out: Lungs %IA",0.1 %ID
same,SUV at 4 h,"[1]; male, BALB/c, lungs, read-out: Lungs SUV",0.1 SUV
same,tissue uptake dose at 4 h,[1]; [8],1.1 ± 0.5 %ID
same,tissue uptake dose at 24 h,[1]; [8],0.1 %ID
same,tissue uptake dose at 72 h,[1]; [8],0.1 %ID
same,SUV at 1 h,"[1]; male, BALB/c, muscle, read-out: Muscle SUV",0.6 ± 0.3 SUV
same,tissue uptake dose at 1 h,[1]; [9],0.1 %ID
same,tissue uptake dose at 4 h,[1]; [9],0.1 %ID
same,SUV at 4 h,"[1]; male, BALB/c, pancreas, read-out: Pancreas SUV",0.1 SUV
same,tissue uptake dose at 1 h,[1]; [10],0.3 ± 0.1 %ID
same,tissue uptake dose at 4 h,[1]; [10],0.3 %ID
same,tissue uptake dose at 24 h,[1]; [10],0.3 ± 0.1 %ID
same,tissue uptake dose at 72 h,[1]; [10],0.1 %ID
same,SUV at 24 h,[1]; [11],0.9 ± 0.3 SUV
same,SUV at 72 h,[1]; [11],0.3 ± 0.1 SUV
same,tissue uptake dose at 4 h,"[1]; male, BALB/c, stomach, read-out: Stomach %IA",0.1 ± 0.1 %ID
same,SUV at 1 h,"[1]; male, BALB/c, whole blood, read-out: Blood SUV",0.1 SUV
same,tissue uptake dose at 4 h,"[1]; blood, 4 h p.i., healthy male BALB/c mice, ~2-3 MBq i.v., mean ± SD, n = 3-4, read-out: Blood %IA",0.2 %ID
same,tissue uptake dose at 4 h,"[1]; bone, 4 h p.i., healthy male BALB/c mice, ~2-3 MBq i.v., mean ± SD, n = 3-4, read-out: Bone %IA",0.6 ± 0.2 %ID
same,Blood %IA,[1]; in vivo,0.0 ± 0.0 %IA
same,Blood SUV,[1]; in vivo,0.0 ± 0.0
same,Brain %IA,[1]; in vivo,0.0 ± 0.0 %IA
same,Brain SUV,[1]; in vivo,0.0 ± 0.0
same,Heart %IA,[1]; in vivo,0.0 ± 0.0 %IA
same,Heart SUV,[1]; in vivo,0.0 ± 0.0
same,Lungs %IA,[1]; in vivo,0.0 ± 0.0 %IA
same,Lungs SUV,[1]; in vivo,0.0 ± 0.0
same,Muscle SUV,[1]; in vivo,0.0 ± 0.0
same,Pancreas %IA,[1]; in vivo,0.0 ± 0.0 %IA
same,Pancreas SUV,[1]; in vivo,0.0 ± 0.0
same,Stomach %IA,[1]; in vivo,0.0 ± 0.0 %IA
same,tissue uptake dose at 72 h,"[1]; in vivo, 72 h p.i., healthy male BALB/c mice, ~2-3 MBq i.v., mean ± SD, n = 3-4, read-out: Excreted %IA",97.8 ± 0.2 %ID
same,tissue uptake dose at 24 h,"[1]; intestines, 24 h p.i., healthy male BALB/c mice, ~2-3 MBq i.v., mean ± SD, n = 3-4, read-out: Intestines %IA",0.2 %ID
same,tissue uptake dose at 24 h,"[1]; kidneys, 24 h p.i., healthy male BALB/c mice, ~2-3 MBq i.v., mean ± SD, n = 3-4, read-out: Kidneys %IA",0.7 ± 0.2 %ID
same,tissue uptake dose at 72 h,"[1]; kidneys, 72 h p.i., healthy male BALB/c mice, ~2-3 MBq i.v., mean ± SD, n = 3-4, read-out: Kidneys %IA",0.2 %ID
same,SUV at 4 h,"[1]; liver, 4 h p.i., healthy male BALB/c mice, ~2-3 MBq i.v., mean ± SD, n = 3-4, read-out: Liver SUV",0.5 ± 0.2 SUV
same,tissue uptake dose at 24 h,"[1]; liver, 24 h p.i., healthy male BALB/c mice, ~2-3 MBq i.v., mean ± SD, n = 3-4, read-out: Liver %IA",1.6 ± 0.2 %ID
same,tissue uptake dose at 72 h,"[1]; liver, 72 h p.i., healthy male BALB/c mice, ~2-3 MBq i.v., mean ± SD, n = 3-4, read-out: Liver %IA",1.2 ± 0.2 %ID
same,SUV at 72 h,"[1]; liver, 72 h p.i., healthy male BALB/c mice, ~2-3 MBq i.v., mean ± SD, n = 3-4, read-out: Liver SUV",0.2 SUV
same,SUV at 1 h,"[1]; lungs, 1 h p.i., healthy male BALB/c mice, ~2-3 MBq i.v., mean ± SD, n = 3-4, read-out: Lungs SUV",0.2 SUV
same,SUV at 4 h,"[1]; muscle, 4 h p.i., healthy male BALB/c mice, ~2-3 MBq i.v., mean ± SD, n = 3-4, read-out: Muscle SUV",0.2 ± 0.1 SUV
same,SUV at 1 h,"[1]; pancreas, 1 h p.i., healthy male BALB/c mice, ~2-3 MBq i.v., mean ± SD, n = 3-4, read-out: Pancreas SUV",0.2 SUV
same,SUV at 1 h,"[1]; spleen, 1 h p.i., healthy male BALB/c mice, ~2-3 MBq i.v., mean ± SD, n = 3-4, read-out: Spleen SUV",0.8 ± 0.2 SUV
same,SUV at 4 h,"[1]; spleen, 4 h p.i., healthy male BALB/c mice, ~2-3 MBq i.v., mean ± SD, n = 3-4, read-out: Spleen SUV",0.8 ± 0.2 SUV
same,tissue uptake dose at 1 h,"[1]; stomach, 1 h p.i., healthy male BALB/c mice, ~2-3 MBq i.v., mean ± SD, n = 3-4, read-out: Stomach %IA",0.2 %ID
same,time without leaching of 153Sm from the chelator,,> 7 days
